Experimental data as given in patent US20100119478A1 (PROBIODRUG, published 2010).

T1: 16 LAQDALNVPST
T1 construct: member of group m23; also called PepSpot spot 16
T1 peptide: LAQDALNVPST

T2: 09 DAVNAPL
T2 construct: member of group m23; also called PepSpot spot 09
T2 peptide: DAVNAPL

T3: 07 AQPDAVNAPL
T3 construct: member of group m23; also called PepSpot spot 07
T3 peptide: AQPDAVNAPL

T4: 11 EKLTGPDKAVT
T4 construct: member of group m23; also called PepSpot spot 11
T4 peptide: EKLTGPDKAVT


Key:
Assay in all cases: PepSpot membrane, peptide 1 µg/spot, antibody 1 µg/ml, AP-conjugated anti-mouse detection
16 LAQDALNVPST = target: T1, 16 LAQDALNVPST
Protocol: (§1) Corresponding PepSpot membranes were prepared by JPT Peptide Technologies GmbH, Berlin (JPT). On these membranes, peptides with the indicated amino acid sequences (see FIG. 3; Z represents pE) were immobilized at a concentration of 1 μg/spot.
(§2) For analysis, membranes were blocked for two hours with TBST-M (=TBST+5% skimmed milk) at room temperature with gentle shaking. Membranes were incubated over night at 4° C. on a rocking platform with the individual MCP-1 N1pE antibody clones diluted to 1 μg/ml in equal volumes of TBST-M. Secondary anti-mouse antibody conjugated with alkaline phosphatase was used for signal detection, following standard procedures.

09 DAVNAPL = target: T2, 09 DAVNAPL
Protocol: as §1, §2

07 AQPDAVNAPL = target: T3, 07 AQPDAVNAPL
Protocol: as §1, §2

11 EKLTGPDKAVT = target: T4, 11 EKLTGPDKAVT
Protocol: as §1, §2

| Binder | binding result (16 LAQDALNVPST) | binding result (09 DAVNAPL) | binding result (07 AQPDAVNAPL) | binding result (11 EKLTGPDKAVT) |
| --- | --- | --- | --- | --- |
| monoclonal antibody 332-4B8 (antibody, V domains shown, Mouse IgG1 from hybridoma, Protein-G purified; also called Clone 4B8; 322-4B8) VH: EVQLQQSGPELEKPGASVKISCKASGYSFTGYNMNWVKQNNGKSLEWIGNITPYYGSTSYNQKFKGRVTLTVDKSSSTAYMQLKSLTSEDSAVYFCLLWLRRGDYAMDYWGQGTSVTVSS VL: DVLMTQTPLSLPVSLGDQASISCKSSQSIVHSNGNTYLEWYLQKPGQSPKLLIYKVFNRFSGVPDRFSGSGSGTDFTLKISRVEAEDLGVYYCFQGSHVPYTFGGGTKLEIKR | no binding (tested: 1 µg peptide per spot) | no binding (tested: 1 µg peptide per spot) | no binding (tested: 1 µg peptide per spot) | no binding (tested: 1 µg peptide per spot) |
| monoclonal antibody 348-2C9 (antibody, V domains shown, Mouse IgG2b from hybridoma, Protein-G purified; also called Clone 2C9; DSM ACC 2906) VH: EVQLQQSGPELVKPGASVKMSCKASGYTFTDYYMDWVKQSHGESFECIGRVNPYNGGTSYNQKFKGKATLTVDKSSSTAYMELNSLTSEDSAVYYCARLGSSYRWGQGTTLTVSS VL: not shown | no binding (tested: 1 µg peptide per spot) | no binding (tested: 1 µg peptide per spot) | no binding (tested: 1 µg peptide per spot) | no binding (tested: 1 µg peptide per spot) |
| monoclonal antibody 348-1D4 (antibody, V domains shown, Mouse IgG2b from hybridoma, Protein-G purified; also called Clone 1D4; DSM ACC 2905) VH: EVQLQQSGPELVKPGASVKMSCKASGYTFTDYYMDWVKQSHGESFECIGRVNPYNGGTSYNQKFKGKATLTVDKSSSTAYMELNSLTSEDSAVYYCARLGSSYRWGQGTTLTVSS VL: not shown | no binding (tested: 1 µg peptide per spot) | no binding (tested: 1 µg peptide per spot) | no binding (tested: 1 µg peptide per spot) | no binding (tested: 1 µg peptide per spot) |
